Common to all, as to experiment: SAVEXIS (scalable arrayed multi-valent extracellular interaction screen); biotinylated bait (100 fmol per well) captured on streptavidin-coated 384-well plates; prey multimerised on streptavidin-HRP (25 fmol protein with 6.25 fmol SAV-HRP); 60 min at 20 °C in 2% BSA in HBS pH 7.4 (1 mM MgCl2, 2 mM CaCl2); desthiobiotin washes; TMB absorbance at 650 nm; both bait-prey orientations; primary and secondary screen
What all share (conditions): both partners purified

Assay [1] addresses T1, Plasmodium falciparum P41 protein (Plasmodium falciparum, UniProt Q8I1Y0 21-378).
T1 construct: P41 protein of Plasmodium falciparum; P41 was the bait in two control wells of every screening plate
T1 sequence: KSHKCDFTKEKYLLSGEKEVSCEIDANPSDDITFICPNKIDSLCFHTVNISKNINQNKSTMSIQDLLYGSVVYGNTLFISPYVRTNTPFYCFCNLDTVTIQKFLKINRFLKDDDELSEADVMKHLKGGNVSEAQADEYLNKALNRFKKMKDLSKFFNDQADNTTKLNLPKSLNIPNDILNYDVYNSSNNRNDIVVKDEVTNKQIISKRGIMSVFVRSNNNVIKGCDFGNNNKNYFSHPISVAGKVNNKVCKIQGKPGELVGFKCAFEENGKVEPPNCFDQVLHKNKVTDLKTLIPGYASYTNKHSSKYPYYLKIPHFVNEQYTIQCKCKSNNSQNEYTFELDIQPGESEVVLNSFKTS

In another assay the target is T2, JAG1 (human, UniProt P78504 34-1067, biotin on the biotin-acceptor site (enzymatic, co-transfected BirA)).
T2 construct: JAG1 (Jagged-1), human, full ectodomain; also called Jagged ligands

For the next assay, the target named is T3, PVR (human, UniProt P15151 21-343, biotin on the biotin-acceptor site (enzymatic, co-transfected BirA)).
T3 construct: PVR (poliovirus receptor), human, full ectodomain
T3 sequence (looked up): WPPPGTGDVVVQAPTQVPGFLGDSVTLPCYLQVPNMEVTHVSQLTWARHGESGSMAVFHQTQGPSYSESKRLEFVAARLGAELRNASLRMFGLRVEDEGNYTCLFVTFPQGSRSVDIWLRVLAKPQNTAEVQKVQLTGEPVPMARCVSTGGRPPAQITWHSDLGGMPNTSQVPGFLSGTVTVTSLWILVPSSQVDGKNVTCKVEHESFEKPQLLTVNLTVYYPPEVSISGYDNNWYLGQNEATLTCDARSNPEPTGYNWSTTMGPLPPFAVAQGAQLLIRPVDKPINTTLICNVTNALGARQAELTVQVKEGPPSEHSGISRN

B1: Plasmodium falciparum P12 (natural protein)
chain: HKNLTCDFNDVYKLEFHPNQQTSVTKLCNLTPNVLEKVTIKCGSDKLNYNLYPPTCFEEVYASRNMMHLKKIKEFVIGSSMFMRRSLTPNKINEVSFRIPPNMMPEKPIYCFCENKKTITINGSNGNPSSKKDIINRGIVEIIIPSLNEKVKGCDFTTSESTIFSKGYSINEISNKSSNNQQDIVCTVKAHANDLIGFKCPSNYSVEPHDCFVSAFNLSGKNENLENKLKLTNIIMDHYNNTFYSRLPSLISDNWKFFCVCSKDNEKKLVFTVEASISSSNTKLASRDNTYQDYISN
notes: P12 protein of Plasmodium falciparum; P12 was presented as a prey (multimerised on streptavidin-HRP) for the positive control
In the case of B1, in assay [1], the binding result is “binds”.

B2: VASN (receptor, human, UniProt Q6EMK4 24-575, looked up)
chain: CPSGCQCSQPQTVFCTARQGTTVPRDVPPDTVGLYVFENGITMLDAGSFAGLPGLQLLDLSQNQIASLPSGVFQPLANLSNLDLTANRLHEITNETFRGLRRLERLYLGKNRIRHIQPGAFDTLDRLLELKLQDNELRALPPLRLPRLLLLDLSHNSLLALEPGILDTANVEALRLAGLGLQQLDEGLFSRLRNLHDLDVSDNQLERVPPVIRGLRGLTRLRLAGNTRIAQLRPEDLAGLAALQELDVSNLSLQALPGDLSGLFPRLRLLAAARNPFNCVCPLSWFGPWVRESHVTLASPEETRCHFPPKNAGRLLLELDYADFGCPATTTTATVPTTRPVVREPTALSSSLAPTWLSPTEPATEAPSPPSTAPPTVGPVPQPQDCPPSTCLNGGTCHLGTRHHLACLCPEGFTGLYCESQMGQGTRPSPTPVTPRPPRSLTLGIEPVSPTSLRVGLQRYLQGSSVQLRSLRLTYRNLSGPDKRLVTLRLPASLAEYTVTQLRPNATYSVCVMPLGPGRVPEGEEACGEAHTPPAVHSNHAPVTQAREGNLP
modifications: biotin on the biotin-acceptor site (enzymatic, co-transfected BirA)
notes: VASN (vasorin), human, full ectodomain; also called vasorin
In the case of B2, in the assay with JAG1, the binding result was “binds”.

B3: KIR2DL5A (receptor, human, UniProt Q8N109 22-238, looked up)
chain: HEGGQDKPLLSAWPSAVVPRGGHVTLLCRSRLGFTIFSLYKEDGVPVPELYNKIFWKSILMGPVTPAHAGTYRCRGSHPRSPIEWSAPSNPLVIVVTGLFGKPSLSAQPGPTVRTGENVTLSCSSRSSFDMYHLSREGRAHEPRLPAVPSVNGTFQADFPLGPATHGGTYTCFGSLHDSPYEWSDPSDPLLVSVTGNSSSSSSSPTEPSSKTGIRRH
modifications: biotin on the biotin-acceptor site (enzymatic, co-transfected BirA)
notes: KIR2DL5A, human, full ectodomain
Turning to B3, in the assay with PVR, the binding result is recorded as “binds”.

The values above are taken from article PMC9365698, “A physical wiring diagram for the human immune system” (Nature, 2022).
